# Key:
# [1] = biological target: T1, EphA10 fused with human Fc (Homo sapiens, UniProt Q5JZY3); assay: ELISA analysis of binding activity to EphA10; conditions: ELISA (FIG. 11, FIG. 20)
# T1 construct: a vector for expressing an extra cellular domain (ECD) of EphA10 or a FNIII domain of the ECD was produced; made in house; host or cells: Expi293F
# T1 sequence (Q5JZY3 34-565 limits assumed): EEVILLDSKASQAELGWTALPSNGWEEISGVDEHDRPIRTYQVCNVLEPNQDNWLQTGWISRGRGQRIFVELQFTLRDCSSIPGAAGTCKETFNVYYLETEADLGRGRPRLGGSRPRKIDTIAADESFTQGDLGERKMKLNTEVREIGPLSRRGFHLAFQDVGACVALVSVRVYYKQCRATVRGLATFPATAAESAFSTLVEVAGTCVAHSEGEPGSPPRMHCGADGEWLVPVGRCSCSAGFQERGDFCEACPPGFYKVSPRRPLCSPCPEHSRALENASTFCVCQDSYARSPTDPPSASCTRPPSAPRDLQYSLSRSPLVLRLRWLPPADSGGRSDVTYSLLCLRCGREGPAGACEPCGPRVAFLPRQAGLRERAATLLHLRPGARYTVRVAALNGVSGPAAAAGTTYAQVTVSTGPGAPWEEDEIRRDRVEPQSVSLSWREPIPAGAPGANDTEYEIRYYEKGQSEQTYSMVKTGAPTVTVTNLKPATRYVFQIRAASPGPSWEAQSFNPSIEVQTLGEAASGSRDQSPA
# Experimental: The binding activity to EphA10 of the five EphA10-binding humanized antibodies purified in Example 3 was analyzed by ELISA. Specifically, 4 µg/ml of EphA10 fused with human Fc was diluted with a 0.05 M Na2CO3 (pH 9.6) solution and immobilized in 50 µl of a Flat Bottom Polystyrene High Bind 96-well microplate (costar) at 4°C for 16 hours, and then blocked with 100 µl of 4% skim milk (GenomicBase) at room temperature for 2 hours. […] 50 µl of a 1-Step Ultra TMB-ELISA substrate solution (Thermo Fisher Scientific) was added to develop color, and then added with 50 µl each of 2 M H2SO4 to terminate the reaction, and then analyzed using an Epoch microplate spectrophotometer (BioTek). […]
# As the sequencing result, it was confirmed that a free cysteine amino acid that was not involved in disulfide bonds existed in the CDR region of the light chain of the EphA10-specific humanized antibody (FIG. 10). […] To verify this, the binding activities of EphA10-specific humanized antibody 1-1 and EphA10-targeting ADC antibody 1-1 (ADC) after ADC production were analyzed and compared by ELISA.
# In Example 8 above, the binding activity to EphA10 of antibodies 1-1-A, 1-1-S, 1-2-A, and 1-2-S, in which the free cysteines present in the light chains of two types of EphA10-specific humanized antibodies 1-1 and 1-2 were substituted with serines and alanines, was analyzed by ELISA. […]
# [2] = system: hEphA10 overexpressing cell line; assay: Cancer cell killing by cell survival analysis using ATP measurement (CellTiter-Glo); assay type: cell-based, human; conditions: stated as a consequence of the lost EphA10 binding of the ADC (FIG. 11)
# Experimental: To confirm the efficacy of ADC in vitro, a cancer cell killing effect was confirmed through cell survival analysis using ATP measurement. Specifically, MDA-MB-231 naive cells (control group), a mock cell line (negative control group), and a hEphA10 overexpressing cell line were dispensed at 2 × 10^4 per well in a 96-well white plate (SPL), respectively, and the following day, the ADC produced in Example 6 was diluted in RPMI (Capricorn) for each concentration, treated by 100 µl per well, and then incubated at 37°C for 48 hours. The ADC-treated plate was incubated at room temperature outside the incubator for 5 minutes, 50 µl of a CellTiter-Glo solution was added to each well, and then the plate was shaken at 500 rpm for 2 minutes. After reacting for 10 minutes on a room temperature bench in a light-blocked state, ATP was measured using a Synergy HTX multimode reader (Biotek).
# To verify the effect of two types of EphA10-targeting ADCs A7-MMAE and 2W_MMAE produced using A7 and 2W antibodies, cell viability analysis of cancer cells was performed by measuring ATP as in Example 7-1 above.
molecule,measurement,setting,value
"1-1 (ADC) (conjugate, non-natural residues) VH: QVTLKESGPTLVKPTQTLTLTCTFSGFSLSTSGMGVGWIRQPPGKALEWLAHIWWDDVKRYNPALKSRLTITKDTSKNQVVLTMTNMDPVDTATYYCARTSFPAGVDYWGQGTLVTVSS VL: DVVMTQSPLSLPVTLGQPASISCRSSQSLQNSNGNTCLNWFQQRPGQSPRRLIYRVSNRFSGVPDRFSGSGSGTDFTLKISRVEAEDVGVYYCLQVTHVPFTFGQGTKLEIKR",EphA10 binding activity of the ADC compared with the antibody before ADC production,[1],greatly reduced
same,in vitro ADC efficacy,[2],greatly reduced
